From patent publication US20110300138A1 (published 2011)
Like-named read-outs stand apart in the source and are kept apart here.

Columns and labels:
Assay in all cases: cell-based or functional assay
[1] = target: wild type TSHR expressed in CHO cells (human) (UniProt P16473)
[2] = target: wild type TSHR (human TSH receptor, full length) expressed in CHO cells (human) (UniProt P16473)
wild type TSHR (human) = wild type TSHR (human) (UniProt P16473)

- Cyclic AMP produced (pmol/mL), TSH 0.03 ng/mL, Experiment 1 [1]: 1.58 pmol/mL
- Cyclic AMP produced (pmol/mL), TSH 0.03 ng/mL, Experiment 2 [1]: 4.48 pmol/mL
- Cyclic AMP produced (pmol/mL), TSH 0.1 ng/mL [1]: 4.09 pmol/mL
- Cyclic AMP produced (pmol/mL), TSH 0.1 ng/mL, Experiment 1 [1]: 1.83 pmol/mL
- Cyclic AMP produced (pmol/mL), TSH 0.1 ng/mL, Experiment 2 [1]: 10.3 pmol/mL
- Cyclic AMP produced (pmol/mL), TSH 0.3 ng/mL [1]: 11.4 pmol/mL
- Cyclic AMP produced (pmol/mL), TSH 0.3 ng/mL, Experiment 1 (single determination) [1]: 3.2 pmol/mL
- Cyclic AMP produced (pmol/mL), TSH 0.3 ng/mL, Experiment 2 [1]: 35.7 pmol/mL
- Cyclic AMP produced (pmol/mL), TSH 1 ng/mL [1]: 45.6 pmol/mL
- Cyclic AMP produced (pmol/mL), TSH 1 ng/mL, Experiment 1 [1]: 15.9 pmol/mL
- Cyclic AMP produced (pmol/mL), TSH 1 ng/mL, Experiment 2 [1]: 72 pmol/mL
- Cyclic AMP produced (pmol/mL), TSH 3 ng/mL [1]: 77.9 pmol/mL
- Cyclic AMP produced (pmol/mL), TSH 3 ng/mL, Experiment 1 [1]: 47.6 pmol/mL
- Cyclic AMP produced (pmol/mL), TSH 3 ng/mL, Experiment 2 [1]: 79.2 pmol/mL
- Cyclic AMP produced, TSH 0.01 ng/mL, wild type TSHR [1]: 2.28 pmol/mL
- Cyclic AMP produced, TSH 0.03 ng/mL, wild type TSHR [1]: 3.77 pmol/mL
- Cyclic AMP produced, TSH 0.1 ng/mL, wild type TSHR [1]: 9.55 pmol/mL
- Cyclic AMP produced, TSH 0.3 ng/mL, wild type TSHR [1]: 28.8 pmol/mL
- Cyclic AMP produced, TSH 1 ng/mL, wild type TSHR [1]: 76.8 pmol/mL
- Cyclic AMP produced, TSH 3 ng/mL, wild type TSHR [1]: 93.1 pmol/mL
- Cyclic AMP produced, wild type TSHR, TSH 0.01 ng/mL (Experiment 1) [1]: 1.69 pmol/mL
- Cyclic AMP produced, wild type TSHR, TSH 0.01 ng/mL (Experiment 2) [1]: 4.16 pmol/mL
- Cyclic AMP produced, wild type TSHR, TSH 0.03 ng/mL (Experiment 1) [1]: 2.46 pmol/mL
- Cyclic AMP produced, wild type TSHR, TSH 0.03 ng/mL (Experiment 2) [1]: 4.92 pmol/mL
- Cyclic AMP produced, wild type TSHR, TSH 0.1 ng/mL (Experiment 1) [1]: 6.18 pmol/mL
- Cyclic AMP produced, wild type TSHR, TSH 0.1 ng/mL (Experiment 2) [1]: 11.2 pmol/mL
- Cyclic AMP produced, wild type TSHR, TSH 0.3 ng/mL (Experiment 1) [1]: 18.9 pmol/mL
- Cyclic AMP produced, wild type TSHR, TSH 0.3 ng/mL (Experiment 2) [1]: 31.4 pmol/mL
- Cyclic AMP produced, wild type TSHR, TSH 1 ng/mL (Experiment 1) [1]: 45.2 pmol/mL
- Cyclic AMP produced, wild type TSHR, TSH 1 ng/mL (Experiment 2) [1]: 74.3 pmol/mL
- Cyclic AMP produced, wild type TSHR, TSH 3 ng/mL (Experiment 1) [1]: 61.6 pmol/mL
- Cyclic AMP produced, wild type TSHR, TSH 3 ng/mL (Experiment 2) [1]: 96.4 pmol/mL
- Cyclic AMP produced; TSH 3 ng/mL [1]: 85 pmol/mL
- Cyclic AMP produced; TSH 3 ng/mL alone [1]: 83.8 pmol/mL
- Cyclic AMP produced; TSH 3 ng/mL; Experiment 1 [1]: 68.8 pmol/mL
- Cyclic AMP produced; TSH 3 ng/mL; Experiment 2 [1]: 97.9 pmol/mL
- Cyclic AMP produced; TSH (2) [1]: 93.5 pmol/mL
- Cyclic AMP produced; TSH (2) 3 ng/mL, run at the end of assay [1]: 83.6 pmol/mL
- Cyclic AMP produced; TSH (2); Experiment 1 [1]: 74.3 pmol/mL
- Cyclic AMP produced; TSH (2); Experiment 2 [1]: 102 pmol/mL
- Experiment 1: % inhibition of TSH stimulation; TSH (2), run at the end of assay [1]: 0%
- Experiment 1; % inhibition of TSH stimulation; TSH (2) 3 ng/mL, run at the end of assay [1]: 5%
- Experiment 1; cyclic AMP produced; TSH 3 ng/mL [1]: 78 pmol/mL
- Experiment 1; cyclic AMP produced; TSH (2) 3 ng/mL, run at the end of assay [1]: 74.3 pmol/mL
- Experiment 2: % inhibition of TSH stimulation; TSH (2), run at the end of assay [1]: 0%
- Experiment 2; % inhibition of TSH stimulation; TSH (2) 3 ng/mL, run at the end of assay [1]: 3%
- Experiment 2; cyclic AMP produced; TSH 3 ng/mL [1]: 95.8 pmol/mL
- Experiment 2; cyclic AMP produced; TSH (2) 3 ng/mL, run at the end of assay [1]: 92.9 pmol/mL
- % inhibition of TSH stimulation; TSH (2) ([1]; record 2): 0%
- % inhibition of TSH stimulation; TSH (2); Experiment 1 ([1]; record 2): 0%
- % inhibition of TSH stimulation; TSH (2); Experiment 2 ([1]; record 2): 0%
- Cyclic AMP produced; TSH 3 ng/mL ([1]; record 2): 76.2 pmol/mL
- Cyclic AMP produced; TSH 3 ng/mL; Experiment 1 ([1]; record 2): 154 pmol/mL
- Cyclic AMP produced; TSH 3 ng/mL; Experiment 2 ([1]; record 2): 59.9 pmol/mL
- Cyclic AMP produced; TSH (2) ([1]; record 2): 93.8 pmol/mL
- Cyclic AMP produced; TSH (2); Experiment 1 ([1]; record 2): 160 pmol/mL
- Cyclic AMP produced; TSH (2); Experiment 2 ([1]; record 2): 61.5 pmol/mL
- % inhibition of TSH stimulation; TSH (2) control [2]: 0%
- % inhibition of TSH stimulation; TSH (2) control; Experiment 1 [2]: 0.1%
- % inhibition of TSH stimulation; TSH (2) control; Experiment 2 [2]: 0%
- Cyclic AMP produced (pmol/mL), TSH 0.01 ng/mL, Experiment 1 [2]: 4.36 pmol/mL
- Cyclic AMP produced (pmol/mL), TSH 0.01 ng/mL, Experiment 2 [2]: 2.21 pmol/mL
- Cyclic AMP produced (pmol/mL), TSH 0.01 ng/mL, Experiment 3 [2]: 5.19 pmol/mL
- Cyclic AMP produced (pmol/mL), TSH 0.03 ng/mL, Experiment 1 [2]: 9.19 pmol/mL
- Cyclic AMP produced (pmol/mL), TSH 0.03 ng/mL, Experiment 2 [2]: 3.61 pmol/mL
- Cyclic AMP produced (pmol/mL), TSH 0.03 ng/mL, Experiment 3 [2]: 9.82 pmol/mL
- Cyclic AMP produced (pmol/mL), TSH 0.1 ng/mL, Experiment 1 [2]: 26.9 pmol/mL
- Cyclic AMP produced (pmol/mL), TSH 0.1 ng/mL, Experiment 2 [2]: 7.86 pmol/mL
- Cyclic AMP produced (pmol/mL), TSH 0.1 ng/mL, Experiment 3 (duplicate determination) [2]: 25 pmol/mL
- Cyclic AMP produced (pmol/mL), TSH 0.3 ng/mL, Experiment 1 [2]: 42 pmol/mL
- Cyclic AMP produced (pmol/mL), TSH 0.3 ng/mL, Experiment 2 [2]: 27.1 pmol/mL
- Cyclic AMP produced (pmol/mL), TSH 0.3 ng/mL, Experiment 3 [2]: 91.7 pmol/mL
- Cyclic AMP produced (pmol/mL), TSH 1 ng/mL, Experiment 1 [2]: 60.1 pmol/mL
- Cyclic AMP produced (pmol/mL), TSH 1 ng/mL, Experiment 2 [2]: 54.2 pmol/mL
- Cyclic AMP produced (pmol/mL), TSH 1 ng/mL, Experiment 3 [2]: 192 pmol/mL
- Cyclic AMP produced (pmol/mL), TSH 3 ng/mL, Experiment 1 [2]: 61.3 pmol/mL
- Cyclic AMP produced (pmol/mL), TSH 3 ng/mL, Experiment 2 [2]: 58.1 pmol/mL
- Cyclic AMP produced (pmol/mL), TSH 3 ng/mL, Experiment 3 [2]: 226 pmol/mL
- Cyclic AMP produced; TSH 3 ng/mL [2]: 50 pmol/mL
- Cyclic AMP produced; TSH 3 ng/mL; Experiment 1 [2]: 67.7 pmol/mL
- Cyclic AMP produced; TSH 3 ng/mL; Experiment 2 [2]: 60.7 pmol/mL
- Cyclic AMP produced; TSH (2) [2]: 53.1 pmol/mL
- Cyclic AMP produced; TSH (2); Experiment 1 [2]: 67.5 pmol/mL
- Cyclic AMP produced; TSH (2); Experiment 2 [2]: 67.8 pmol/mL
- % inhibition of TSH stimulation, TSH (2) run at the end of assay, wild type TSHR (wild type TSHR (human)): 0%
- Cyclic AMP produced (mean of duplicate), TSH 3 ng/mL (wild type TSHR (human)): 88 pmol/mL
- Cyclic AMP produced (pmol/mL), TSH 3 ng/mL, wild type TSHR (wild type TSHR (human)): 101 pmol/mL
- Cyclic AMP produced (pmol/mL), TSH (2) 3 ng/mL run at the end of assay, wild type TSHR (wild type TSHR (human)): 131 pmol/mL
- Cyclic AMP produced, TSH 0.01 ng/mL, Experiment 1 (wild type TSHR (human)): 1.22 pmol/mL
- Cyclic AMP produced, TSH 0.01 ng/mL, Experiment 2 (wild type TSHR (human)): 2.02 pmol/mL
- Cyclic AMP produced, TSH 0.03 ng/mL, Experiment 1 (wild type TSHR (human)): 1.85 pmol/mL
- Cyclic AMP produced, TSH 0.03 ng/mL, Experiment 2 (wild type TSHR (human)): 1.96 pmol/mL
- Cyclic AMP produced, TSH 0.1 ng/mL, Experiment 1 (wild type TSHR (human)): 4.89 pmol/mL
- Cyclic AMP produced, TSH 0.1 ng/mL, Experiment 2 (wild type TSHR (human)): 4.49 pmol/mL
- Cyclic AMP produced, TSH 0.3 ng/mL, Experiment 1 (wild type TSHR (human)): 17.4 pmol/mL
- Cyclic AMP produced, TSH 0.3 ng/mL, Experiment 2 (wild type TSHR (human)): 13.5 pmol/mL
- Cyclic AMP produced, TSH 1 ng/mL, Experiment 1 (wild type TSHR (human)): 52.9 pmol/mL
- Cyclic AMP produced, TSH 1 ng/mL, Experiment 2 (wild type TSHR (human)): 43.2 pmol/mL
- Cyclic AMP produced; TSH 3 ng/mL; Experiment 1 (wild type TSHR (human)): 70.6 pmol/mL
- Cyclic AMP produced; TSH 3 ng/mL; Experiment 2 (wild type TSHR (human)): 84.8 pmol/mL
Substance: TSH (ligand)
